Source: patent publication US10308973B1, “Real-time imaging method of NAPDH-dependent metabolic activity in cell and use thereof” (INDUSTRY FOUNDATION OF CHONNAM NATIONAL UNIVERSITY, priority 2018, dated 2019)

Columns and labels:
[1] = system: mBFP-transformed animal cells; test: NADPH imaging of mBFP-transformed animal cells treated with NADPH dehydrogenase inhibitors; type: cell-based; conditions: compared among the inhibitors of Table 3
Procedure: The mBFP-transformed animal cells were cultured and treated with NADPH dehydrogenase inhibitors shown in Table 3, respectively, and the amount of change in NADPH was measured.

[2] = system: recombinant animal cells (HeLa cell); test: Two-photon fluorescence imaging of mBFP-expressing animal cells after oxidant treatment; type: cell-based; conditions: 40 μM diamide; glucose-free medium; images every second
Procedure: The recombinant animal cells produced in the Examples above were treated with diamide, which is an oxidant, to reduce the amount of NADPH in the cells, and the change in fluorescence was observed as follows. First, before observing the recombinant animal cells, the medium was replaced with a culture medium from which glucose was removed to prevent continuous overproduction of NADPH, and the cells were cultured for 1 hour and images thereof were observed. After treatment with 40 μM diamide, fluorescence images were taken every second using a real-time image measurement method using a two-photon microscopy.

[3] = Benzaldehyde reductase activity of mBFP purified from transformed cells; type: biochemical; conditions: benzaldehyde reaction solution
Procedure: The cultured cells were disrupted, recovered, and purified using the His-tag as follows.
The cell supernatant disrupted with phosphate buffered saline (PBS) was injected into and passed through Ni-NTA Spin Columns (Qiagen), and washed with wash buffer (PBS, 10 mM imidazole). Then, the mBFP protein was recovered with the elution buffer (PBS, 100 mM imidazole).
In order to confirm whether the mBFP protein had activity as a reductase through mutation, the reductase activity of mBFP was measured using the reaction solution for measuring the benzaldehyde reductase activity of Example 1 above.

[4] = Enzyme activity (aldehyde dehydrogenase) of purified mutant mBFP; type: biochemical; conditions: purified protein
Procedure: In order to measure benzaldehyde dehydrogenase activity, a reaction solution of pH 7.5 in which 100 mM Tris, 100 mM sodium chloride, 0.05% Triton X-100, […] and added at an amount of 10 μL per well containing 90 μL of cultured cells, and reacted for 10 minutes. The change in fluorescence value was measured by the fluorescence reader to measure the amount of NADPH consumed by the activity of mBFP mutant enzyme.
In order to measure the enzyme activity of the short-chain dehydrogenase/reductase family (SDR family) of the purified mutant mBFP, a reaction solution (100 mM Tris, 100 mM sodium chloride, 0.05% Triton X-100, 0.5 mM benzaldehyde, 0.5 mM NADPH, pH 7.5) for measuring aldehyde dehydrogenase was added at an amount of 10 μL to each well to which the protein was added, and reacted for 10 minutes, and then the amount of reduced NADPH was measured using a fluorescent reader.

Question: For `NC(=O)c1ccc(N)nc1` [6-ANA, 6-Aminonicotinamide], which “difference of fluorescence intensity due to mBFP after inhibitor treatment” value [1] is on record?
Answer: the largest

Question: For `C[C@]12CC[C@H](O)CC1=CC[C@@H]1[C@@H]2CC[C@]2(C)C(=O)CC[C@@H]12` [DHEA, Dehydroepiandrosterone], which “difference of fluorescence intensity due to mBFP after inhibitor treatment” value [1] is on record?
Answer: the largest

Question: Which “fluorescence intensity after oxidant treatment” value [2] does the source give for `CN(C)C(=O)/N=N/C(=O)N(C)C` [diamide] here?
Answer: rapidly decreased

B1: Wild type: wild-type metagenome-derived blue fluorescent protein, SEQ ID NO: 6, GenBank Accession No. AF485783 (protein)
chain: MQNLNGKVAFVTGGSRGIGAAIVRRLAADGADIAFTYVSASSKNVATALVQELEAKGRRARAIQADSADPAQVRQAVEQAIVQLGPVDVLVNNAGIFLAGPLGEVTLDDYERTMNINVRAPFVAIQAAQASMPDGGRIINIGSCLAERAGRAGVTLYAASKSALLGMTRGLARDLGARGITANVVHPGPIDTDMNPADGERSGELVAVLSLPHYGEVRDIAGMVAFLAGPDGRYVTGASLAVDGGFAA
modifications: BFP wild type Y157 w/o his-tag
Question: What does the source list for B1?
Answer: reductase activity (in words) [3]: exhibited the reductase activity; Enzyme activity of mutant mBFP, Acetaldehyde ([4]; substrate acetaldehyde): 10.34 ± 0.24 U mg^−1; Enzyme activity of mutant mBFP, Benzaldehyde ([4]; substrate benzaldehyde): 6.41 ± 0.34 U mg^−1; Enzyme activity of mutant mBFP, Hexanal ([4]; substrate hexanal): 4.34 ± 0.14 U mg^−1; Enzyme activity of mutant mBFP, Pivaldehyde ([4]; substrate pivaldehyde): 14.43 ± 0.68 U mg^−1
